The results in this text go back to FireProtDB (doi:10.1002/prot.1147).

The conditions of the data set: Homo sapiens; pH 2.7; Thermal; DSC; Gly-HCl 0.05 M; reversible: yes; whole UniProt chain shown.

B1: Lysozyme C wild type, P61626 (protein)
chain: MKALIVLGLVLLSVTVQGKVFERCELARTLKRLGMDGYRGISLANWMCLAKWESGYNTRATNYNAGDRSTDYGIFQINSRYWCNDGKTPGAVNACHLSCSALLQDNIADAVACAKRVVRDPQGIRAWVAWRNRCQNRDVRQYVQGCGV
Consider B1, for which the Tm – broadly, the temperature at which the thermal transition is half complete – was found to be 64.9 °C; the “heat capacity change of unfolding” value turned out to be 1.58 kcal/mol/K; the “unfolding enthalpy (van 't Hoff)” value amounted to 114 kcal/mol.
